Experimental data as given in patent US20240092890A1 (JUNTENDO EDUCATIONAL FOUNDATION, published 2024).

T1: protein having an Fc region and a His-tag added to the N-terminus of SEQ ID NO: 1
T1 construct: also called mutant CALR protein (antigen of the BLItz measurement); not shown: Fc region and His-tag at the N-terminus
T1 chain: RRMMRTKMRMRRM

T2: Ins 5 type mutant CALR protein on UT-7/TPO CALR Ins 5 cells (UniProt P27797 18-417)
T2 sequence (looked up): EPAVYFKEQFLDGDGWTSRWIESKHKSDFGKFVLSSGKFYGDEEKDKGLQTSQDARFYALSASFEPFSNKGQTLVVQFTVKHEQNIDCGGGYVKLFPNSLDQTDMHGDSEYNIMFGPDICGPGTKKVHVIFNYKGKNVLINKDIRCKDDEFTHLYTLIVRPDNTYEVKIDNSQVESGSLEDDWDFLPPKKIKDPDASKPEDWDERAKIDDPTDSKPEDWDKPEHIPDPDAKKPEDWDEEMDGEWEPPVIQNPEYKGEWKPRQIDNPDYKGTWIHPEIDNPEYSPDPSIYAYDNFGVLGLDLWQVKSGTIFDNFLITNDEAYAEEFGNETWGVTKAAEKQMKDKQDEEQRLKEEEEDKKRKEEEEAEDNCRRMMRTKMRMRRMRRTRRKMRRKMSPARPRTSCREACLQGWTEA

B1: Antibody 109 (bispecific antibody)
chain 1: not shown
chain 2: DIQMTQSPSSLSASVGDRVTITCLASEDIYSYLAWYQQKPGKAPKLLIFAANRLQSGVPSRFSGSGSGTDFTLTISSLQPEDFATYYCLQGSKFPYTFGPGTKVDIKRTVAAPSVFIFPPSDEQLKSGTASVVCLLNNFYPREAKVQWKVDNALQSGNSQESVTEQDSKDSTYSLSSTLTLSKADYEKHKVYACEVTHQGLSSPVTKSFNRGEC
chain 3: DKTHTCPPCPAPEAAGGPSVFLFPPKPKDTLMISRTPEVTCVVVDVSHEDPEVKFNWYVDGVEVHNAKTKPREEQYNSTYRVVSVLTVLHQDWLNGKEYKCKVSNKALPAPIEKTISKAKGQPREPQVCTLPPSREEMTKNQVSLSCAVKGFYPSDIAVEWESNGQPENNYKTTPPVLDSDGSFFLVSKLTVDKSRWQQGNVFSCSVMHEALHNHYTQKSLSLSPGK
B2: Antibody 114 (bispecific antibody)
chain 1: DIQMTQSPSSLSASVGDRVTITCLASEDIYSYLAWYQQKPGKAPKLLIFAANRLQSGVPSRFSGSGSGTDFTLTISSLQPEDFATYYCLQGSKFPYTFGPGTKVDIKGGGGSGGGGSGGGGSQVQLVQSGAEVKKPGSSVKVSCKASGYTFTRNFIHWIRQAPGQGLEWIGWIFPGDADTEYNQKFSGRATITADKSTSTAYMELSSLRSEDTAVYYCARGNYNYEYFDYWGQGTMVTVSSGGGGSGGGGSGGGGSDKTHTCPPCPAPEAAGGPSVFLFPPKPKDTLMISRTPEVTCVVVDVSHEDPEVKFNWYVDGVEVHNAKTKPREEQYNSTYRVVSVLTVLHQDWLNGKEYKCKVSNKALPAPIEKTISKAKGQPREPQVCTLPPSREEMTKNQVSLSCAVKGFYPSDIAVEWESNGQPENNYKTTPPVLDSDGSFFLVSKLTVDKSRWQQGNVFSCSVMHEALHNHYTQKSLSLSPGK
chain 2: not shown

Legend:
[1] = target: T1, protein having an Fc region and a …; assay: BLItz biolayer interferometry, Fc/His-SEQ ID NO: 1 protein on the biosensor
How it was run: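 The Fc/His-tagged protein was loaded at 0.1 mg/mL onto Anti-Penta-HIS or Protein A biosensors. Antibodies were run at 500, 100 and 50 nM by biolayer interferometry, and the dissociation constant was derived from these binding curves.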

[2] = target: T2, Ins 5 type mutant CALR protein on …; assay: cell-based or functional assay

Binder | Kd [1] [nM] | EC50 of cytotoxic activity (pM) [2] [pM]
B1 | 9.91 | 3800
B2 | 6.06 | 790
